Results published in the RNAGym collection of RNA variant scans (doi:10.1073/pnas.2313332121).
Variants at the floor of the assay were thinned out.

B1: TPR 5TU (parent)
chain: GGAUCUUCUCGAUCUAACAAAAAAGACAAAUCUGCCACAAAGCUUGAGAGCAUCUUCGGAUGCAGAGGCGGCAGCCUUCGGUGGCGCGAUAGCGCCAACGUUCUCAACUAUGACACGCAAAACGCGUGCUCCGUUGAAUGGAGUUUAUCAUG

Variants of: B1
Test: polymerase ribozyme fitness, log enrichment relative to wild type (log ratio); higher = more active; in vitro selection for triplet polymerase activity
Summary of the method: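 Fitness measures genotype enrichment against wild-type enrichment on a logarithmic scale, with inverse-variance-weighted averaging of replicates. The logarithm is base 2, and genotypes were kept only with ≥10 input reads and ≥1 read per output in Illumina sequencing. The sequenced libraries came from one triplicate in vitro selection round, including frozen incubation at −7 °C, of PCR-built, transcribed mutant libraries of each subunit of a heterodimeric triplet polymerase ribozyme.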

GGAUCUUCUCGAUCUAACAAAAAAGACAAAUCUGCCACAAAGCUUGCGAGCAUCUUCGGAUGCAGAGGCGGCAGCAUUCGGUGGCGGGAUAGCGCUAACGUUCUCAACUAUGACGCGCAAAACGCGUGCUCCGUUGAAUGGAGUUUAUCAUG [A47C C76A C87G C96U A115G] and GGAUCUUCUCGAUCUAACAAAAACGACAAAUCUGCCACAAAGCUUGCGAGCAUCUUUGGAUGCAGAGGCGGCAGCCUUCGGUGGCGCGAUAGCGCCAACGUUCUCAACUAUGACACGCAAUACGCGUGCUCCGUUGAAUGGAGUUUAUCAUG [A24C A47C C57U A121U] cannot be ordered by “polymerase ribozyme fitness (log ratio)” value: at most -4.2 for the first, at most -4.2 for the second.

Compared with GGAUCUUCUCGAUCUAACAAAAAAGACAAAUCUGCCACAAAGCUUGAGACCAUCUUGGGAUGCAGAGGCGGCAGCCUUCGGUGGCGCGAUAGCGCCAACGUUCUCAACUAUGACACGGAAAACGCGUGCUCCGUUGAAUGGAGUUUAUCAUG [G50C C57G C118G], GGAUCUUCUCGAUCUAACAAAAAAGACAAAUCUGCCACUAAGCUUGAGAGCAUCUUCGGAUGCAGAGGCGGCAGCCUUCGGUGGCGCGAUAGCGCCAACGUUCUCAACUGUGACACGCAAAACGCGUGCUCCGUUGAAUGGAGUUUAGCAUG [A39U A110G U148G] is lower in “polymerase ribozyme fitness (log ratio)” value: -3.68 for the first, -4 for the second.

Going from GGAUCUUCUCGAUCUAACAAAAAAGACAAAUCUGCCACACAGCUUGAGAGCAUCUUCGGAUGCAGAGGCGGCAGCCUUCGGUGGCGCGAUAACGCCUACGUUCUCAACUAUGACACGCAAAACGCGUGCUCCGUUGAAUGGAGUUUAUCAUG [A40C G92A A97U] to GGAUCUUCUCGGUCUAACAAAAAAGACAAAUCUGCCACAAAGCUUGAGAGCCUCAUCGGAUGCAGAGGCGGCAGCCUUCGGUGGCGCGAUAGCGCCAACGUUCUCAACUAUGACACGGAUAACGCGUGCUCCGUUGAAUGGAGUUUAUCAUG [A12G A52C U55A C118G A120U], the “polymerase ribozyme fitness (log ratio)” value rises from -3.34 to -1.84.

Compared with GGAACUUCUCGAUCUAACAAAAAAGACAAAUCUGCCACAAAGCUUGAGAGCAUCUUCGGAUGCAGAGGCGGCAGCCUUCGGUGUUGCGAUAGCGCCAACGUUCUCAACUAUGACACUCAAAACGCGUGCUCCGUUGAAUGGAGUCUAUCAUG [U4A G84U C85U G117U U145C], GGAUCUUCUCGAUCUAACAAAAAAGACAAAUCUGCCACAAAACUUUAGAGCAUCUUCGGAUGCAGAGGCGGCAGCCUUCGGAGGCGCGAUAGCGCCAACGUUCUCAACUAUGACACGCAAUACGCGUGCUCCGUUGAAUGGAGUUUAUCAUG [G42A G46U U82A A121U] is lower in “polymerase ribozyme fitness (log ratio)” value: -2.29 for the first, -4.16 for the second.

GGAUCUUCUCGAUCUAACUAAAAAGACAAAUCUGCCACAACGCUUGAGACCAUCUUCGGAUGCAGAGGCGGCAGCCUUCGGUGGCGCGAUAGCGCUAAUGGUCUCAACUAUGACACGCAAAACGCGUGCUCCGUUGAAUGGAGUUUAUCAUG [A19U A41C G50C C96U C99U U101G] and GGAUCUUCUCGAUCUAACAAAAAAGACAAAUCUGCCAUAAAGCUUGAGAGCAUCAUCGGAUGCAGAGGGGGCAGCCUUCGGUGGCGCGAUAGCGCCAACGUUCUCAACUAUGACGCGCAAAACGCGUGCUCCGUUGGAUGGGGUUUAUCAUG [C38U U55A C69G A115G A137G A142G] cannot be ordered by “polymerase ribozyme fitness (log ratio)” value: at most -4.2 for the first, at most -4.2 for the second.

GGAUCUUCUCGAUCUAACAAAAAAGACAAAUCUGCCACAGAGCUUGAGAGCAUCUUCGGCUGCAGAGGCGGCAGCCUUCGGUGGCGCGAUAGCGCCAACGUUCUGAACUAUGACACGCAAAACGCGUGCUCCGUUGACUGGAGUUUUUCAUG [A40G A60C C105G A138C A147U] and GGAUCUUCUCGAUCUAACGAAAAAGACAAAUCUGCCACAAAGCUUGAGAGCUUCUUCGGAUGCAGAGGCGGCAGCCUUCGGUAGCGCGAUAGCGCCAGCGUUCUCAACUAUGACACGGAAAACACGUGCUCCGCUGAAUUGAGUUUAUCAUG [A19G A52U G83A A98G C118G G124A U134C G140U] cannot be ordered by “polymerase ribozyme fitness (log ratio)” value: at most -4.2 for the first, at most -4.2 for the second.

Compared with GGAUCUUCUCGAUCUAACAAAAAAGACAAAUCUGCCACAAAGCUUGAGAGCAUCUUCGGAUGCAGAGGCGGCAGCCUUCGGUGGCGCGCUAGCGCCAACGUUCUCAACUAUGACACGCAAAACGCGAGCUCCGUUGAAUGGAGUUUAUCAUG [A89C U127A], GGAUCUUCUCGAUCUAACAAAAAAGACAAAUCUGCCACAAAGCUUGAGAGUAUCUUCGGAUGCAGAGGCGGCAGCCUUCGGUGGCUCGAUAGCGCCAACGUUCUCAACUAUGACACGCAAAACGCGUGCUCCGUUGAAUGGAGUGUAUCAUG [C51U G86U U145G] is higher in “polymerase ribozyme fitness (log ratio)” value: -4.16 for the first, -2.27 for the second.

First: GGAUCUUCUGGAUCUAACAUAAAAGACUAAUCUGUCACAAAGCUUGAGAGGAUCUUCGGAUGCCGAGGCGGCAGCCUUCGGUGUCGCGAUAGCGCCAACGUUCUCAACUAUGACACGCAAAAUGCGUGCUCCGUUGAAUGGAGUUUAUCAUG [C10G A20U A28U C35U C51G A64C G84U C123U]
Second: GGAUCUUCUCGAUCUAACAAAAAAGAUAAAUCUGCCACAAAGCUUAAGAGCAUUUUCGGAUGCAGAGGCGGCAGCCUUCGGUGGGGCGAUAGCGCCAACGUUCUCAACUAUGACACGCAAAACGCGUGCUCCGUUGAAUGGAGUUUAUCAUG [C27U G46A C54U C85G]
The “polymerase ribozyme fitness (log ratio)” value of the first is lower: at most -4.2 for the first, -3.63 for the second.

Compared with GGAUCUUCUCGAUCUAACAAAAAAGACAAAUCUGCCACAAAGCUUCAGAGCAUCUUCGGAUGCAGAGGAGGCAGCCUUCGAUGGCGCGAUAGCGCCAACGUUCUCAACUAUGACACGCAAAACGCGUGCUCCGUUGAAUGGAGUUUAUCAUG [G46C C69A G81A], GGAUCUUCUCGAUCUAACAAAAAAGACAAAUCUGCCACAAAGCUUGAGAGCAUCUUCGGAUGCAGAGGCGGCAGCCUUCGGUGGCGCGAUAGCGCCAACGUUCUAAACUAUGACACGCAGAAAGCGUGCUCUGUUCAAUGGAGUUUAUCAUG [C105A A120G C123A C132U G136C] is lower in “polymerase ribozyme fitness (log ratio)” value: -1.82 for the first, -3.32 for the second.

For GGAUCUUCUCGAUCUAACAAAAAAGACAAAUCUGCCACAAAGCUUGAGAGCAUCUUCGGAUGCAGAGGCGGCAGCCUUCGGUGGCGUGAUAGCGCCAACGUUCUCAACUAUGACACGCAAAACGCGUGCUCCGUUGAAUGGAGUUUAGCAUG [C87U U148G], the “polymerase ribozyme fitness (log ratio)” value was -3.83.
